# Experimental data as given in patent US20200216522A1 (DENALI THERAPEUTICS, published 2020).
# Residue numbers refer to the chain shown, from its start.
# T1: Peptide_010 (human)
# T1 peptide: SPLQTPTEDGSEEPG
# T2: Peptide_008 (human)
# T2 peptide: EGDTDAGLKESPLQT
# T3: Peptide_007 (human)
# T3 peptide: MHQDQEGDTDAGLKE
# T4: Peptide_005 (human)
# T4 peptide: GDRKDQGGYTMHQDQ
# T5: Peptide_004 (human)
# T5 peptide: GTYGLGDRKDQGGYT
# T6: Peptide_023 (human)
# T6 peptide: TPSLEDEAAGHVTQA
# T7: Peptide_021 (human)
# T7 peptide: TTAEEAGIGDTPSLE
# T8: Peptide_019 (human)
# T8 peptide: AQPHTEIPEGTTAEE
# T9: Peptide_018 (human)
# T9 peptide: GKQAAAQPHTEIPEG
# T10: Peptide_016 (human)
# T10 peptide: TAPLVDEGAPGKQAA
# T11: Peptide_015 (human)
# T11 peptide: TAEDVTAPLVDEGAP
# T12: Peptide_029 (human)
# T12 peptide: KAKGADGKTKIATPR
# T13: Peptide_028 (human)
# T13 peptide: GSDDKKAKGADGKTK
# T14: Peptide_047 (human)
# T14 peptide: TPPKSPSSAKSRLQT
# T15: Peptide_045 (human)
# T15 peptide: REPKKVAVVRTPPKS
# T16: Peptide_039 (human)
# T16 peptide: SGDRSGYSSPGSPGT
# T17: Peptide_059 (human)
# T17 peptide: CGSKDNIKHVPGGGS
# T18: Peptide_057 (human)
# T18 peptide: KLDLSNVQSKCGSKD
# T19: Peptide_056 (human)
# T19 peptide: QIINKKLDLSNVQSK
# T20: Peptide_053 (human)
# T20 peptide: GSTENLKHQPGGGKV
# T21: Peptide_050 (human)
# T21 peptide: APVPMPDLKNVKSKI
# T22: Peptide_049 (human)
# T22 peptide: SRLQTAPVPMPDLKN
# T23: Peptide_070 (human)
# T23 peptide: FKDRVQSKIGSLDNI
# T24: Peptide_068 (human)
# T24 peptide: QVEVKSEKLDFKDRV
# T25: Peptide_067 (human)
# T25 peptide: KPGGGQVEVKSEKLD
# T26: Peptide_064 (human)
# T26 peptide: SKVTSKCGSLGNIHH
# T27: Peptide_062 (human)
# T27 peptide: VQIVYKPVDLSKVTS
# T28: Peptide_079 (human)
# T28 peptide: EIVYKSPVVSGDTSP
# T29: Peptide_078 (human)
# T29 peptide: TDHGAEIVYKSPVVS
# T30: Peptide_077 (human)
# T30 peptide: NAKAKTDHGAEIVYK
# T31: Peptide_074 (human)
# T31 peptide: GGNKKIETHKLTFRE
# T32: Peptide_073 (human)
# T32 peptide: THVPGGGNKKIETHK
# T33: Peptide_072 (human)
# T33 peptide: SLDNITHVPGGGNKK
# T34: Peptide_085 (human)
# T34 peptide: DSPQLATLADEVSAS
# T35: Peptide_084 (human)
# T35 peptide: SIDMVDSPQLATLAD
# B1: chimeric IgG clone 1A1 (antibody, V domains shown)
# VH: EVQLQQSGAELVRPGASVRLSCTASGFNIKDSLMHWLKQRPEQGLEWIGWIDPEDGETKYAPKFQDKATITADTSSNTAYLQLSSLTSEDTAIYYCTRRDWEGPWGQGTLVTVSA
# VL: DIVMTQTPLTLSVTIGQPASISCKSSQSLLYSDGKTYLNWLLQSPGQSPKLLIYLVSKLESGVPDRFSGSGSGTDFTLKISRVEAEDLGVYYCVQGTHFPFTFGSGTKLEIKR
# notes: mouse-human chimeric IgG from HEK293; also called anti-Tau 1A1; anti-Tau^1A1
# B2: chimeric IgG clone 1G7 (antibody, V domains shown)
# VH: B1 VH with L11V, R19K, A24T, E89G, T97A
# VL: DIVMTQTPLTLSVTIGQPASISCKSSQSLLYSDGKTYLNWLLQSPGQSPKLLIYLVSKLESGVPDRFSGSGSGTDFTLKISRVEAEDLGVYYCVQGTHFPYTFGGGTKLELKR
# notes: mouse-human chimeric IgG from HEK293
# B3: chimeric IgG clone 1A5 (antibody, V domains shown)
# VH: EVQLQQSGAELVRPGASVKLSCTASGFNIKDSLIHWVKQRPEQGLEWIGWIDPEDGETKYAPKFQDKATKTADTSSNTAYLQLSSLTSEDTAIYYCASGEWDYWGQGTSVTVSS
# VL: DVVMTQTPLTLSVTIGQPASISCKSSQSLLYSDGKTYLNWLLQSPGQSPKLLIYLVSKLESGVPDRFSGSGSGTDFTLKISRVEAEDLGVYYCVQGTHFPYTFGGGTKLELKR
# notes: as for B2
# Target: T1, Peptide_010
# Experiment: peptide array
# Outline: (§1)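 Overlapping 15-mer peptides (5-aa offset) spanning human 2N4R Tau spotted in triplicate on slides; antibodies bound 2 h at room temperature in 3% BSA-TBST (chimeric IgG 5 μg/mL; mouse IgG 30 μg/mL). Detection 1 h with fluorescent anti-human (568 nm) or anti-mouse (647 nm) secondary; fluorescence imaging aligned to array map.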
row,Binder,binding result
1,B1,no binding (tested: 5 ug/mL)
2,B2,no binding (tested: 5 ug/mL)
3,B3,no binding (tested: 5 ug/mL)

# Target: T2, Peptide_008
# Experiment: peptide array
# Outline: as §1
row,Binder,binding result
1,B1,no binding (tested: 5 ug/mL)
2,B2,no binding (tested: 5 ug/mL)
3,B3,no binding (tested: 5 ug/mL)

# Target: T3, Peptide_007
# Experiment: peptide array
# Outline: as §1
row,Binder,binding result
1,B1,no binding (tested: 5 ug/mL)
2,B2,no binding (tested: 5 ug/mL)
3,B3,no binding (tested: 5 ug/mL)

# Target: T4, Peptide_005
# Experiment: peptide array
# Outline: as §1
row,Binder,binding result
1,B1,no binding (tested: 5 ug/mL)
2,B2,no binding (tested: 5 ug/mL)
3,B3,no binding (tested: 5 ug/mL)

# Target: T5, Peptide_004
# Experiment: peptide array
# Outline: as §1
row,Binder,binding result
1,B1,no binding (tested: 5 ug/mL)
2,B2,no binding (tested: 5 ug/mL)
3,B3,no binding (tested: 5 ug/mL)

# Target: T6, Peptide_023
# Experiment: peptide array
# Outline: as §1
row,Binder,binding result
1,B1,no binding (tested: 5 ug/mL)
2,B2,no binding (tested: 5 ug/mL)
3,B3,no binding (tested: 5 ug/mL)

# Target: T7, Peptide_021
# Experiment: peptide array
# Outline: as §1
row,Binder,binding result
1,B1,no binding (tested: 5 ug/mL)
2,B2,no binding (tested: 5 ug/mL)
3,B3,no binding (tested: 5 ug/mL)

# Target: T8, Peptide_019
# Experiment: peptide array
# Outline: as §1
row,Binder,binding result
1,B1,no binding (tested: 5 ug/mL)
2,B2,no binding (tested: 5 ug/mL)
3,B3,no binding (tested: 5 ug/mL)

# Target: T9, Peptide_018
# Experiment: peptide array
# Outline: as §1
row,Binder,binding result
1,B1,no binding (tested: 5 ug/mL)
2,B2,no binding (tested: 5 ug/mL)
3,B3,no binding (tested: 5 ug/mL)

# Target: T10, Peptide_016
# Experiment: peptide array
# Outline: as §1
row,Binder,binding result
1,B1,no binding (tested: 5 ug/mL)
2,B2,no binding (tested: 5 ug/mL)
3,B3,no binding (tested: 5 ug/mL)

# Target: T11, Peptide_015
# Experiment: peptide array
# Outline: as §1
row,Binder,binding result
1,B1,no binding (tested: 5 ug/mL)
2,B2,no binding (tested: 5 ug/mL)
3,B3,no binding (tested: 5 ug/mL)

# Target: T12, Peptide_029
# Experiment: peptide array
# Outline: as §1
row,Binder,binding result
1,B1,no binding (tested: 5 ug/mL)
2,B2,no binding (tested: 5 ug/mL)
3,B3,no binding (tested: 5 ug/mL)

# Target: T13, Peptide_028
# Experiment: peptide array
# Outline: as §1
row,Binder,binding result
1,B1,no binding (tested: 5 ug/mL)
2,B2,no binding (tested: 5 ug/mL)
3,B3,no binding (tested: 5 ug/mL)

# Target: T14, Peptide_047
# Experiment: peptide array
# Outline: as §1
row,Binder,binding result
1,B1,no binding (tested: 5 ug/mL)
2,B2,no binding (tested: 5 ug/mL)
3,B3,no binding (tested: 5 ug/mL)

# Target: T15, Peptide_045
# Experiment: peptide array
# Outline: as §1
row,Binder,binding result
1,B1,no binding (tested: 5 ug/mL)
2,B2,no binding (tested: 5 ug/mL)
3,B3,no binding (tested: 5 ug/mL)

# Target: T16, Peptide_039
# Experiment: peptide array
# Outline: as §1
row,Binder,binding result
1,B1,no binding (tested: 5 ug/mL)
2,B2,no binding (tested: 5 ug/mL)
3,B3,no binding (tested: 5 ug/mL)

# Target: T17, Peptide_059
# Experiment: peptide array
# Outline: as §1
row,Binder,binding result
1,B1,no binding (tested: 5 ug/mL)
2,B2,no binding (tested: 5 ug/mL)
3,B3,no binding (tested: 5 ug/mL)

# Target: T18, Peptide_057
# Experiment: peptide array
# Outline: as §1
row,Binder,binding result
1,B1,no binding (tested: 5 ug/mL)
2,B2,no binding (tested: 5 ug/mL)
3,B3,no binding (tested: 5 ug/mL)

# Target: T19, Peptide_056
# Experiment: peptide array
# Outline: as §1
row,Binder,binding result
1,B1,no binding (tested: 5 ug/mL)
2,B2,no binding (tested: 5 ug/mL)
3,B3,no binding (tested: 5 ug/mL)

# Target: T20, Peptide_053
# Experiment: peptide array
# Outline: as §1
row,Binder,binding result
1,B1,no binding (tested: 5 ug/mL)
2,B2,no binding (tested: 5 ug/mL)
3,B3,no binding (tested: 5 ug/mL)

# Target: T21, Peptide_050
# Experiment: peptide array
# Outline: as §1
row,Binder,binding result
1,B1,no binding (tested: 5 ug/mL)
2,B2,no binding (tested: 5 ug/mL)
3,B3,no binding (tested: 5 ug/mL)

# Target: T22, Peptide_049
# Experiment: peptide array
# Outline: as §1
row,Binder,binding result
1,B1,no binding (tested: 5 ug/mL)
2,B2,no binding (tested: 5 ug/mL)
3,B3,no binding (tested: 5 ug/mL)

# Target: T23, Peptide_070
# Experiment: peptide array
# Outline: as §1
row,Binder,binding result
1,B1,binds
2,B2,binds
3,B3,binds

# Target: T24, Peptide_068
# Experiment: peptide array
# Outline: as §1
row,Binder,binding result
1,B1,no binding (tested: 5 ug/mL)
2,B2,no binding (tested: 5 ug/mL)
3,B3,no binding (tested: 5 ug/mL)

# Target: T25, Peptide_067
# Experiment: peptide array
# Outline: as §1
row,Binder,binding result
1,B1,no binding (tested: 5 ug/mL)
2,B2,no binding (tested: 5 ug/mL)
3,B3,no binding (tested: 5 ug/mL)

# Target: T26, Peptide_064
# Experiment: peptide array
# Outline: as §1
row,Binder,binding result
1,B1,no binding (tested: 5 ug/mL)
2,B2,no binding (tested: 5 ug/mL)
3,B3,no binding (tested: 5 ug/mL)

# Target: T27, Peptide_062
# Experiment: peptide array
# Outline: as §1
row,Binder,binding result
1,B1,no binding (tested: 5 ug/mL)
2,B2,no binding (tested: 5 ug/mL)
3,B3,no binding (tested: 5 ug/mL)

# Target: T28, Peptide_079
# Experiment: peptide array
# Outline: as §1
row,Binder,binding result
1,B1,no binding (tested: 5 ug/mL)
2,B2,no binding (tested: 5 ug/mL)
3,B3,no binding (tested: 5 ug/mL)

# Target: T29, Peptide_078
# Experiment: peptide array
# Outline: as §1
row,Binder,binding result
1,B1,no binding (tested: 5 ug/mL)
2,B2,no binding (tested: 5 ug/mL)
3,B3,no binding (tested: 5 ug/mL)

# Target: T30, Peptide_077
# Experiment: peptide array
# Outline: as §1
row,Binder,binding result
1,B1,no binding (tested: 5 ug/mL)
2,B2,no binding (tested: 5 ug/mL)
3,B3,no binding (tested: 5 ug/mL)

# Target: T31, Peptide_074
# Experiment: peptide array
# Outline: as §1
row,Binder,binding result
1,B1,no binding (tested: 5 ug/mL)
2,B2,no binding (tested: 5 ug/mL)
3,B3,no binding (tested: 5 ug/mL)

# Target: T32, Peptide_073
# Experiment: peptide array
# Outline: as §1
row,Binder,binding result
1,B1,no binding (tested: 5 ug/mL)
2,B2,no binding (tested: 5 ug/mL)
3,B3,no binding (tested: 5 ug/mL)

# Target: T33, Peptide_072
# Experiment: peptide array
# Outline: as §1
row,Binder,binding result
1,B1,no binding (tested: 5 ug/mL)
2,B2,no binding (tested: 5 ug/mL)
3,B3,no binding (tested: 5 ug/mL)

# Target: T34, Peptide_085
# Experiment: peptide array
# Outline: as §1
row,Binder,binding result
1,B1,no binding (tested: 5 ug/mL)
2,B2,no binding (tested: 5 ug/mL)
3,B3,no binding (tested: 5 ug/mL)

# Target: T35, Peptide_084
# Experiment: peptide array
# Outline: as §1
row,Binder,binding result
1,B1,no binding (tested: 5 ug/mL)
2,B2,no binding (tested: 5 ug/mL)
3,B3,no binding (tested: 5 ug/mL)
